Experimental data as given in PMC3058826 (Nature, 2010).

Target: T1, TRIM24 PHD-Bromo C840W (human, UniProt O15164 824-1006, C840W)
T1 sequence: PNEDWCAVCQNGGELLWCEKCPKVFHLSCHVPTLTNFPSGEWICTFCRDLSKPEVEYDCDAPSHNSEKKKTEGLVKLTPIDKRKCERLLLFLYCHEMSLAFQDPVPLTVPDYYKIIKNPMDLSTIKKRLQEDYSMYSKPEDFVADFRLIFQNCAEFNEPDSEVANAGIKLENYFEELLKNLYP
Experiment: ITC

In the case of ARTKQTARKSTGGKA [H3(1–15)K4 peptide], the Kd is reported as > 400 µM.
